# Test system: K4 kissing-loop RNA reporter
# Assay: apparent KD of K4 kissing-loop reporter; higher = weaker reporter binding
# Conditions: Eterna round: R107
# Method: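 RNA-MaP round R107: designed RNA switches with theophylline, tryptophan, arginine or FMN aptamers are transcribed on-chip within common flanks. They are titrated with a labelled K4 kissing-loop RNA reporter in RNA-MaP buffer (100 mM Tris pH 7.5, 80 mM KCl, 4 mM MgCl2), without ligand or with the indicated ligand. Median apparent KD per design.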
# [1] = input ligand: theophylline 20 uM
# [2] = input ligand: tryptophan 2.4 mM
# 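Note: bound reporter read as fluorescence of individual clusters on recovered sequencing chips by microscopy, with normalized cluster intensities fitted with a binding model.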
Sequence,apparent KD of K4 kissing-loop reporter (input ligand: FMN 200 uM),apparent KD of K4 kissing-loop reporter (input ligand: arginine 13.2 mM),apparent KD of K4 kissing-loop reporter (input ligand: none),apparent KD of K4 kissing-loop reporter [1],apparent KD of K4 kissing-loop reporter [2]
GCAACAUUGGGAGGAUAUCAUUCUGAGUGAUGUUCAGGGUUCAGCUAACGAAAGUUAGUUGUACCAUGAGAAGGUCUAAUGUUGC [Omei KL FMN B SS A v6],342 nM,975 nM,1180 nM,1020 nM,1150 nM
GCAAGGCUACAAGGAUAUGCGCGAACCUACCGCCAAGCGGCUACCGGUGAGUCAGUGAUGUUGGCUGCAGAAGGUGUGAUUGAGC [theeternabot_sameState_KL_FMN_B_45],383 nM,301 nM,365 nM,380 nM,334 nM
GCACUACAAUAAGGAUAUCAUAAAAUGGAGAGCGAGUGAUGUUCGCAGAGACACCUAUUUUUCCUAUGAGAAGGUAUUAACGCCG [theeternabot_sameState_KL_FMN_B_40],97.8 nM,99 nM,120 nM,161 nM,93.2 nM
GCACUCCAUCGGACGUAAGUGAUGUUUACCCGAGGACCGGUACGGCCGCCACUCGACCGUGCAUAACCAAAUCAAAUAGCUUCCG [theeternabot_exclusion_KL_Trp_A_31],143 nM,127 nM,138 nM,120 nM,221 nM
GCAGUCAAUCAACCACGAAAGUGGAUGGAUACCAGCCCGAAACCGGGCCCUUGGCAGCCAGUGAUGUUGGAAGACUGCUUUAAAA [#SwitchBubble 15 #K4Late],974 nM,256 nM,607 nM,219 nM,337 nM
GCAGUGAUGUUGCAAAAUGUCUGUGGUAGUCGAGGACCGGUACGGCCGCCACUCGGUGAGAACCUGCUAAUACAUCGAUAAGUGA [IX],706 nM,580 nM,627 nM,810 nM,666 nM
GCAGUGAUGUUGCGCGGGUACGGUAGAGUGCGAGGACCGGUACGGCCGCCACUCGUACGGAACUGGCUAAUAUAUGGAUAGGUGA [V],496 nM,318 nM,446 nM,406 nM,243 nM
GCAGUGAUGUUGCUGAUGUACAGUGGGAUACGAGGACCGGUACGGCCGCCACUCGUACAGAACUUGUUAAUACAUCGAUAGGUGA [XIII],702 nM,759 nM,880 nM,837 nM,564 nM
GCAUCCUAUGCAGGAUAUUAGCAUUUGAGUGAUGUUCAGACUAGCGAAAGCUAGUCAAUUGCUGGUUAAGAAGGGCAUAGGAUGC,891 nM,750 nM,971 nM,902 nM,689 nM
GCCGUACGCAUGGAUACCAGCAAGCAUAGCAGGAAACUGCUAUGCACCAGUGAUGUUGGAUGCCCUUGGCAGCCAUGCGUACGGC,1250 nM,754 nM,926 nM,439 nM,1110 nM
GCCGUACGCAUGGAUACCAGCAUGCAUAUUAGCUAGUGAUGUUAGCGCUAUGCGAUGCUAUGCCCUUGGCAGCCAUGCGUACGGC,124 nM,108 nM,127 nM,247 nM,132 nM
GCCGUAGAUUGAAGGAGCGCCAUCUUACCAAGAGUGAUGUUCUUUGGUACCAUGUACAGCUGGCAGGUAGGUCGCAAUCUACGGC,192 nM,151 nM,173 nM,181 nM,169 nM
GCCGUAGAUUGAAGGAGCGCCGCGCAUGUCCCGCUUAGUGUAGUGAUGUUACAGUUUCAGCGGCAGGUAGGUCGCAAUCUACGGC,83.4 nM,83.3 nM,81.3 nM,77.2 nM,69.5 nM
GCCUACGAUGCAGGAUAUAGCUCGCGAGUGAUGUUCGCAGCUGUAUGGUAGUAAGCUUCCACGUGUCUAGAAGGGCAUCGUAGGC [#01 K4 FMN B Exclusion],131 nM,80.2 nM,93.6 nM,83.3 nM,88.7 nM
GCGCGGCACAGUGAUGUUGUGCCUCGGAGACGAGGACCGGUACGGCCGCCACUCGUCCGCGCAGCUGAGGCAAAAGCCUCGGCAA [Omei KL Tryp A SS B v4],382 nM,393 nM,473 nM,447 nM,128 nM
GCGCGUCAUGUCAGCGGUGACUACGUCGAUACCAGCAGGGAAACCUGCCCUUGGCAGCGACGCGCUGGAGUGAUGUUCCGACAGA [#2 Exclusion - Theophylline A Attempt #5 (HarryS)],218 nM,247 nM,192 nM,309 nM,176 nM
GCGCUUAAAUAAGGAUAUUACAGACUCAUCUACGAGUGAUGUUCGGUGCGCUGUGCACAGAGCCUGUAAGAAGGUAUAGCAUUGC [theeternabot_sameState_KL_FMN_B_41],1010 nM,716 nM,1180 nM,811 nM,861 nM
GCUAUGGUAGGAAGGAGCGCUUACUCAUUAAUAAGAGUGAUGUUCGAUAAUGAGUAUUUAUAGCAGGUAGGUCGCCUACUAUAGC [Arginine B K4 3],280 nM,221 nM,270 nM,247 nM,237 nM
GCUAUGGUAGGAAGGAGCGCUUAUUUAUUUUUAAGAGUGAUGUUCGUUAGUAGAUAUUUAAAGCAGGUAGGUCGCCUACUAUAGC [Arginine B K4 14],85.8 nM,124 nM,84 nM,120 nM,52 nM
GCUAUGGUAGGAAGGAGCGCUUGCUCGGUCAUAAGAGUGAUGUUCGAGACCGAGCAUUUAUAGCAGGUAGGUCGCCUACUAUAGC [Arginine B K4 7],310 nM,194 nM,200 nM,256 nM,250 nM
GCUCAGGAGUGAUGUUCCAAGUGGUGUUAACGAGGACCGGUACGGCCGCCACUCGAUACGGCCGGACCGUAGGAUAAACUAGAGC [Same State - Tryptophan A (Freestyle 11)],233 nM,175 nM,196 nM,280 nM,206 nM

# — the supplement of paper PMC9170038
